Results: patent KR20140018819A (dated 2014)
Where a chain is given by its changes, count along the chain named. Blank lines part the entries; values can stand above or below the binder they belong to.

Target: T1, TM4SF5 (transmembrane 4 L six family member 5) 단백질 (human, UniProt O14894 1-197)
T1 sequence (looked up): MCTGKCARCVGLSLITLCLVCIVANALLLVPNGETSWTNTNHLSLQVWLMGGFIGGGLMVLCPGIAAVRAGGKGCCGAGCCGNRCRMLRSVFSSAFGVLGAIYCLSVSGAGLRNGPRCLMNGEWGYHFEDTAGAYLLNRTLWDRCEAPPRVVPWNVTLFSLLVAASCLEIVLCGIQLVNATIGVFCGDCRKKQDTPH
Experiment: cell-based or functional assay

간암세포주의 침윤 억제 (Transwell assay, Tp 세포, 항체 20㎍/㎖, 48시간): 56%
B1: 항-TM4SF5 항체 #27 (scFv-Fc) (Fc fusion)
VH: QVQLQQFGAELVRPGASVTLSCKASGYTFTDYEMHWVKQTPVHGLEWIGAIDPETGGTAYNQKFKGKAILTADKSSSTAYMELRSLTSEDSAVYYCTRPYLGYWGQGTTVTVSS
VL: DAVVTQTPLSLPVSLGDQASISCRSSQSLVHSNGNTYLHWYLQKPGQSPKLLIYKVSNRFSGVPDRFSGSGSGTDFTLKISRVEAEDLGVYYCFQGSHIPLTFGAGTKLELK

간암세포주의 침윤 억제 (Transwell assay, Tp 세포, 항체 20㎍/㎖, 48시간): 49%
B2: 항-TM4SF5 항체 #79 (scFv-Fc) (Fc fusion)
VH: B1 VH with Q1G, F7S, T19K, R98V, P99Y, Y100G, G102A, T109L, S114A
VL: B1 VL with A2V, V4M, Y92F, F94S, G96N, S97T, I99V, L101Y, A105G

간암세포주의 침윤 억제 (Transwell assay, Tp 세포, 항체 20㎍/㎖, 48시간): 83%
B3: 항-TM4SF5 항체 #1 (scFv-Fc) (Fc fusion)
VH: EVQLQQFGAELVRPGASVTLSCKASGYTFTDYEMHWVKQTPVHGLEWIGAIDPETGGTAYNQKFKGKAILTADKSSSTAYMELRSLTSEDSAVYFCARLTLFYGNYDWPFDVWGTGTSVTVSS
VL: DIVMTQSQKFMSTSVGDRVSITCKASQNVRTAVAWYQQKPGQSPKLLIYWASTRHTGVPDRFTGSGSGTDFTLTISNVQSEDLADYFCQQYSSYPFTFGSGTKLEIK
